The text below walks through data of article PMC4783296, “Structural basis underlying CAC RNA recognition by the RRM domain of dimeric RNA-binding protein RBPMS”.

One data set concerns the target RBPMS RRM F65A (human, UniProt Q93062 14-111, F65A). The data set can be described thus: ITC; ITC: 20 mM Tris-HCl pH 7.5, 100 mM NaCl, 25 C; 0.03-0.05 mM protein in cell, 0.26-0.5 mM RNA in syringe, single-site model. The settings on record: protein: recombinant; tags: 6His-SUMO removed with Ulp1; single strand. Background: In ITC the heat of successive injections is recorded.

Another data set has as its target RBPMS RRM F27A (human, UniProt Q93062 14-111, F27A). The data set is described as above. The settings on record: protein: recombinant; tags: 6His-SUMO removed with Ulp1; single strand.
The target in another data set is RBPMS RRM K100E (human, UniProt Q93062 14-111, K100E). The description is as above. The settings on record: protein: recombinant; tags: 6His-SUMO removed with Ulp1; single strand.
For a further data set, the target named is RBPMS RRM T103A/K104A (human, UniProt Q93062 14-111, T103A;K104A). The description is as above. The settings on record: protein: recombinant; tags: 6His-SUMO removed with Ulp1; single strand.
Another data set deals with RBPMS RRM WT (human, UniProt Q93062 14-111). Nature of the data set: ITC; approaching 2:1 RRM:RNA; ITC: 20 mM Tris-HCl pH 7.5, 100 mM NaCl, 25 C; 0.03-0.05 mM protein in cell, 0.26-0.5 mM RNA in syringe, single-site model. The settings on record: protein: recombinant; tags: 6His-SUMO removed with Ulp1; chain copies: 2; single strand.
In the next data set the target is RBPMS RRM E97A/K100A (human, UniProt Q93062 14-111, E97A;K100A). Nature of the data set: ITC; Kd printed only in figure; ITC: 20 mM Tris-HCl pH 7.5, 100 mM NaCl, 25 C; 0.03-0.05 mM protein in cell, 0.26-0.5 mM RNA in syringe, single-site model. The settings on record: protein: recombinant; tags: 6His-SUMO removed with Ulp1; single strand.
Chain of RBPMS RRM E97A/K100A (Q93062 14-111 E97A/K100A): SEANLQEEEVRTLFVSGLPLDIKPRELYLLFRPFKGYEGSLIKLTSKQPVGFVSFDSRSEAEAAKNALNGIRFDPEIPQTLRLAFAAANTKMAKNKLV

Chain of RBPMS RRM T103A/K104A (Q93062 14-111 T103A/K104A): as the sequence (Q93062 14-111 E97A/K100A) above, with A84E, A87K, T90A, K91A counted along it
Chain of RBPMS RRM F27A (Q93062 14-111 F27A): as the sequence (Q93062 14-111 E97A/K100A) above, with F14A, A84E, A87K counted along it
Chain of RBPMS RRM K100E (Q93062 14-111 K100E): as the sequence (Q93062 14-111 E97A/K100A) above, with A84E, A87E counted along it
Chain of RBPMS RRM WT (Q93062 14-111): as the sequence (Q93062 14-111 E97A/K100A) above, with A84E, A87K counted along it
Chain of RBPMS RRM F65A (Q93062 14-111 F65A): as the sequence (Q93062 14-111 E97A/K100A) above, with F52A, A84E, A87K counted along it

As usually defined, the Kd is the free concentration of one partner at which half of the binding sites on the other are occupied at equilibrium, for simple one-to-one binding. GCACUUUCAACUUCACU (ssRNA) [ETF1 17-nt RNA]: the binding result with RBPMS RRM F65A, in the data set with RBPMS RRM F27A, in the data set with RBPMS RRM K100E and with RBPMS RRM T103A/K104A was “no binding” throughout. For the same molecule, the Kd in the data set with RBPMS RRM WT was 900 nM. Also, the binding signal with RBPMS RRM E97A/K100A is ~10 fold reduced affinity vs WT.
